Measured values from patent US20260250320A1, “LIPIDATED PEPTIDE INHIBITORS OF INTERLEUKIN-23 RECEPTOR” (Janssen Pharmaceutica NV, priority 2023, published 2026).
*1 amine or outer side, *2 acyl side, *3 side chain or, on linkers, in order; H or OH if unused. Bridges are numbered along the chain shown (N, C = ends). Primed or numbered codes have the meaning given here. Where no end group is shown, it is not given here. Side-chain parts run from the residue outwards. [ ]: non-standard residue; d: D form. K(d) = (2R)-2-(4-((5-amino-5-carboxypentyl)amino)-4-oxobutanamido)-3-carboxy-N,N,N-trimethylpropan-1-aminium, C[N+](C)(C)C[C@@H](CC(=O)[*:3])NC(=O)CCC(=O)NCCCC[C@H](N[*:1])C(=O)[*:2]; TMAPF = 5-(4-(2-amino-2-carboxyethyl)phenoxy)-N,N,N-trimethylpentan-1-aminium, C[N+](C)(C)CCCCCOc1ccc(C[C@H](N[*:1])C(=O)[*:2])cc1; PEG2′ = PEG2 spacer unit (not further defined); Trp(7-Me) = Cc1cccc2c(C[C@H](N)C(=O)O)c[nH]c12; γGlu = O=C(O)[C@H](CCC(=O)[*:2])N[*:1]; 2Nal = N[C@@H](Cc1ccc2ccccc2c1)C(=O)O; AEF = NCCOc1ccc(C[C@H](N)C(=O)O)cc1; 3Pal = N[C@@H](Cc1cccnc1)C(=O)O; NMecPEG3a = not defined here; Pen = CC(C)(S)[C@H](N)C(=O)O; PEG2(3) = not defined here; PEG12′ = not defined here; PEG2″ = PEG2 spacer unit; Thp = NC1(C(=O)O)CCOCC1; Sar = CNCC(=O)O

B1: SEQ ID NO: 74 (peptide)
peptide: Ac-[dR][Pen]K([PEG2″-PEG2″-γGlu-C18OH])T[Trp(7-Me)]K(Ac)[Pen][AEF][2Nal][Thp]K(NMecPEG3a)N[3Pal][Sar]-NH2
modifications: disulfide 2-7 (inferred); reading uncertain; also: printed as MeCO-r-Pen(3)-K(PEG2PEG2gEC18OH)-T-7MeW-K(Ac)-Pen(3)-AEF-2Nal-THP-K(NMecPEG3a)-N-3Pya-Sar-CONH2
B2: SEQ ID NO: 100 (peptide)
peptide: XNTXXXXXXKNXX
modifications: MeCO-Pen(3)-N-T-7MeW-K(Ac)-Pen(3)-AEF-2Nal-THP-K(PEG12gEC18OH)-N-3Pya-Sar-CONH2
B3: SEQ ID NO: 98 (peptide)
peptide: Ac-[dK]([PEG12′-γGlu-C18OH])[Pen]NT[Trp(7-Me)]K(Ac)[Pen][AEF][2Nal][Thp]K(Ac)N[3Pal][Sar]-NH2
modifications: disulfide 2-7 (inferred)
B4: SEQ ID NO: 96 (peptide)
peptide: XNTXKXXXXENXX
modifications: MeCO-Pen(3)-N-T-7MeW-K(PEG12gEC18OH)-Pen(3)-AEF-2Nal-THP-E-N-3Pya-Sar-CONH2
B5: SEQ ID NO: 103 (peptide)
peptide: XNTXXXXXXENXXK
modifications: MeCO-Pen(3)-N-T-7MeW-K(Ac)-Pen(3)-AEF-2Nal-THP-E-N-3Pya-Sar-K(PEG12gEC20OH)-CONH2
B6: SEQ ID NO: 75 (peptide)
peptide: Ac-[dR][Pen]K([PEG2″-PEG2″-γGlu-C18OH])T[Trp(7-Me)]K(Ac)[Pen][TMAPF][2Nal][Thp]EN[3Pal][Sar]-NH2
modifications: disulfide 2-7 (inferred)
B7: SEQ ID NO: 116 (peptide)
peptide: {HOC18-γGlu-PEG12′}-[Pen]NTK(Ac)[Pen][AEF][2Nal][Thp]EN[3Pal][Sar]-NH2
modifications: disulfide 1-5 (inferred); not fully specified; printed as HOC18gEPEG12CO-Pen(3)-N-T-K(Ac)-Pen(3)-AEF-2Nal-THP-E-N-3Pya-Sar-CONH2
B8: SEQ ID NO: 83 (peptide)
peptide: {HOC18-γGlu-PEG2″-PEG2″}-[dR][Pen]NT[Trp(7-Me)]K(Ac)[Pen][TMAPF][2Nal][Thp]EN[3Pal][Sar]-NH2
modifications: disulfide 2-7 (inferred); not fully specified
B9: SEQ ID NO: 117 (peptide)
peptide: Ac-[dK]([PEG12′-γGlu-C18OH])[Pen]NT[Trp(7-Me)]K(Ac)[Pen][AEF][2Nal][Thp]EN[3Pal][Sar]-NH2
modifications: disulfide 2-7 (inferred)
B10: SEQ ID NO: 9 (peptide)
peptide: Ac-[dR][Pen]NT[Trp(7-Me)]K(Ac)[Pen][AEF]([PEG2′-PEG2′-γGlu-C18OH])[2Nal][Thp][K(d)]N[3Pal][Sar]-NH2
modifications: disulfide 2-7 (inferred)
B11: SEQ ID NO: 99 (peptide)
peptide: Ac-[dR][Pen]K([PEG12′-γGlu-C20OH])T[Trp(7-Me)]K(Ac)[Pen][AEF][2Nal][Thp]EN[3Pal][Sar]-NH2
modifications: disulfide 2-7 (inferred)
B12: SEQ ID NO: 102 (peptide)
peptide: XNTXXXXXXXNXXK
modifications: MeCO-Pen(3)-N-T-7MeW-K(Ac)-Pen(3)-AEF-2Nal-THP-K(Ac)-N-3Pya-Sar-K(PEG12gEC18OH)-CONH2
B13: SEQ ID NO: 101 (peptide)
peptide: XNTXXXXXXXNXXK
modifications: MeCO-Pen(3)-N-T-7MeW-K(Ac)-Pen(3)-AEF-2Nal-THP-K(Ac)-N-3Pya-Sar-K(PEG12gEC20OH)-CONH2
B14: SEQ ID NO: 105 (peptide)
peptide: Ac-[dR][Pen]K([PEG12′-γGlu-C18OH])T[Trp(7-Me)]K(Ac)[Pen][AEF][2Nal][Thp]EN[3Pal][Sar]-NH2
modifications: disulfide 2-7 (inferred)
B15: SEQ ID NO: 97 (peptide)
peptide: Ac-[Pen]K([PEG12′-γGlu-C18OH])T[Trp(7-Me)]K(Ac)[Pen][AEF][2Nal][Thp]EN[3Pal][Sar]-NH2
modifications: disulfide 1-6 (inferred)
B16: SEQ ID NO: 82 (peptide)
peptide: {HOC18-γGlu-PEG2″-PEG2″}-[dR][Pen]NT[Trp(7-Me)]K(Ac)[Pen][AEF][2Nal][Thp]K(NMecPEG3a)N[3Pal][Sar]-NH2
modifications: disulfide 2-7 (inferred); not fully specified; printed as HOC18gEPEG2PEG2CO-r-Pen(3)-N-T-7MeW-K(Ac)-Pen(3)-AEF-2Nal-THP-K(NMecPEG3a)-N-3Pya-Sar-CONH2; reading uncertain
B17: SEQ ID NO: 84 (peptide)
peptide: {HOC18-γGlu-PEG2′-PEG2′}-[dR][Pen]NT[Trp(7-Me)]K(NMecPEG3a)[Pen][AEF][2Nal][Thp]EN[3Pal][Sar]-NH2
modifications: disulfide 2-7 (inferred); not fully specified; printed as HOC18gEPEG2PEG2CO-r-Pen(3)-N-T-7MeW-K(NMecPEG3a)-Pen(3)-AEF-2Nal-THP-E-N-3Pya-Sar-CONH2; reading uncertain
B18: SEQ ID NO: 104 (peptide)
peptide: Ac-[dK]([PEG12′-γGlu-C20OH])[Pen]NT[Trp(7-Me)]K(Ac)[Pen][AEF][2Nal][Thp]K(Ac)N[3Pal]X-NH2
modifications: disulfide 2-7 (inferred); not fully specified (residue 14); printed as MeCO-k(PEG12gEC20OH)-Pen(3)-N-T-7MeW-K(Ac)-Pen(3)-AEF-2Nal-THP-K(Ac)-N-3Pya-Ser-CONH2
B19: SEQ ID NO: 76 (peptide)
peptide: Ac-[dR][Pen]K([PEG2″-PEG2″-γGlu-C18OH])T[Trp(7-Me)]K(NMecPEG3a)[Pen][AEF][2Nal][Thp]EN[3Pal][Sar]-NH2
modifications: disulfide 2-7 (inferred); reading uncertain; also: printed as MeCO-r-Pen(3)-K(PEG2PEG2gEC18OH)-T-7MeW-K(NMecPEG3a)-Pen(3)-AEF-2Nal-THP-E-N-3Pya-Sar-CONH2
B20: SEQ ID NO: 147 (peptide)
peptide: XNTXXXXXXENXX
modifications: not fully specified; MeCO-Pen(3)-N-T-7MeW-K(Ac)-Pen(3)-AEF-2Nal-THP-E-N-3Pya-Sar-CO(PEG2PEG2gEC18OH)
B21: SEQ ID NO: 66 (peptide)
peptide: Ac-[dR][Pen]K([PEG2″-PEG2″-γGlu-C18OH])T[Trp(7-Me)]K(Ac)[Pen][AEF][2Nal][Thp]EN[3Pal][Sar]
modifications: disulfide 2-7 (inferred); not fully specified (C-terminus); printed as MeCO-r-Pen(3)-K(PEG2PEG2gEC18OH)-T-7MeW-K(Ac)-Pen(3)-AEF-2Nal-THP-E-N-3Pya-Sar-CONH(PEG3a)
B22: SEQ ID NO: 10 (peptide)
peptide: Ac-[dR][Pen][K(d)]T[Trp(7-Me)]K(Ac)[Pen][AEF][2Nal][Thp]EN[3Pal][Sar]-NH2
modifications: disulfide 2-7 (inferred); not fully specified (residue 8); printed as MeCO-r-Pen(3)-K(d)-T-7MeW-K(Ac)-Pen(3)-AEF(PEG2PEG2gEC18OH)-2Nal-THP-E-N-3Pya-Sar-CONH2
B23: SEQ ID NO: 1 (peptide)
peptide: XNTXXXXXXENXXK
modifications: MeCO-Pen(3)-N-T-7MeW-K(Ac)-Pen(3)-AEF-2Nal-THP-E-N-3Pya-Sar-K(Sar-S-Sar-S-Sar-S-Sar-C14)-CONH2
B24: SEQ ID NO: 64 (peptide)
peptide: XNTXXXXXXKNXX
modifications: not fully specified; MeCO-Pen(3)-N-T-7MeW-K(Ac)-Pen(3)-AEF-2Nal-THP-K(PEG2PEG2gEC18OH)-N-3Pya-Sar-CONH(PEG3a)
B25: SEQ ID NO: 5 (peptide)
peptide: RXNTWXXXXXENXX
modifications: C12gEPEG2PEG2CO-r-Abu(1)-N-T-W-K(Ac)-aMeC(1)-AEF-2Nal-THP-E-N-3Pya-Sar-CONH2
B26: SEQ ID NO: 12 (peptide)
peptide: Ac-[dR][Pen]K([PEG2(3)-PEG2(3)-γGlu-C18OH])T[Trp(7-Me)]K(Ac)[Pen][AEF][2Nal][Thp][K(d)]N[3Pal][Sar]-NH2
modifications: disulfide 2-7 (inferred)
B27: SEQ ID NO: 65 (peptide)
peptide: Ac-[dR][Pen]NT[Trp(7-Me)]K([PEG2″-PEG2″-γGlu-C18OH])[Pen][AEF][2Nal][Thp]EN[3Pal][Sar]
modifications: disulfide 2-7 (inferred); not fully specified (C-terminus); printed as MeCO-r-Pen(3)-N-T-7MeW-K(PEG2PEG2gEC18OH)-Pen(3)-AEF-2Nal-THP-E-N-3Pya-Sar-CONH(PEG3a)

target: T1, interleukin-23 receptor (IL-23R) (UniProt Q5VWK5 24-629, limits assumed); experiment: cell-based or functional assay
T1 sequence (looked up): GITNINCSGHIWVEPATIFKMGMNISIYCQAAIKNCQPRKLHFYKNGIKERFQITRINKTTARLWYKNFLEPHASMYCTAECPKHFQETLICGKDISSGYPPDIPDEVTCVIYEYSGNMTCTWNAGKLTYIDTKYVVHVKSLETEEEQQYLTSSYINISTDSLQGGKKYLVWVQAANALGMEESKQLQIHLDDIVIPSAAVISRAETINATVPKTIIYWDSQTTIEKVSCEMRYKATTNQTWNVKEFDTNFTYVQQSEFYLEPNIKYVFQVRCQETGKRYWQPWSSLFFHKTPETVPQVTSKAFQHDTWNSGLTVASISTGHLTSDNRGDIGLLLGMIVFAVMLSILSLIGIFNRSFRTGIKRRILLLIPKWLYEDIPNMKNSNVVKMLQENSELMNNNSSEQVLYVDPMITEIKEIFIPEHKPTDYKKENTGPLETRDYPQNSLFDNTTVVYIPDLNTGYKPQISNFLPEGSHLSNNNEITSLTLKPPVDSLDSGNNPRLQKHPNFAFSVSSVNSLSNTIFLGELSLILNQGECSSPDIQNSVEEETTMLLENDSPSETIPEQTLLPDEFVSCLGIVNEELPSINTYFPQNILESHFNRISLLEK

Binder | PBMC pSTAT3 IC50
B1 | < 0.5 nM
B2 | < 0.5 nM
B3 | < 0.5 nM
B4 | < 0.5 nM
B5 | < 0.5 nM
B6 | < 0.5 nM
B7 | < 0.5 nM
B8 | < 0.5 nM
B9 | < 0.5 nM
B10 | < 0.5 nM
B11 | < 0.5 nM
B12 | < 0.5 nM
B13 | < 0.5 nM
B14 | < 0.5 nM
B15 | < 0.5 nM
B16 | < 0.5 nM
B17 | < 0.5 nM
B18 | < 0.5 nM
B19 | < 0.5 nM

target: T1, interleukin-23 receptor (IL-23R); experiment: cell-based or functional assay; remark: another data set of the same source

Binder | IC50, IL23R reporter assay
B1 | < 50 nM
B20 | ≥ 500 nM
B21 | ≥ 500 nM
B2 | < 50 nM
B22 | < 50 nM
B23 | < 50 nM
B3 | < 50 nM
B4 | < 50 nM
B24 | ≥ 500 nM
B5 | < 50 nM
B6 | < 50 nM
B7 | < 50 nM
B8 | < 50 nM
B9 | < 50 nM
B10 | < 50 nM
B25 | < 50 nM
B11 | < 50 nM
B12 | < 50 nM
B13 | < 50 nM
B26 | < 50 nM
B14 | < 50 nM
B15 | < 50 nM
B16 | < 50 nM
B17 | < 50 nM
B18 | < 50 nM
B27 | ≥ 500 nM
B19 | < 50 nM
